Our source for the MBEC values is patent publication US20210324359A1, “USE OF GRAM-NEGATIVE LYSIN-ANTIMICROBIAL PEPTIDE (AMP) POLYPEPTIDE CONSTRUCTS IN TREATING ENDOCARDITIS” (priority 2020, published 2021).

The assay deals with biofilms formed by P. aeruginosa strain ATCC 17646. Particulars: strain ATCC 17646 biofilm. As for the experimental part: Biofilms are then washed and treated with e.g., a 2-fold dilution series of the lysin in TSBg at e.g., 37° C. for 24 hours. After treatment, wells are washed, air-dried at e.g., 37° C. and stained with e.g., 0.05% crystal violet for 10 minutes.

B1: GN370: lysin-AMP construct: MIDR, FIRL and NPTH moieties N-terminal to GN202 lysin (SEQ ID NO: 44) (protein)
chain: MIDRFIRLNPTHGPRRPRRPGRRAPVRTSQRGIDLIKSFEGLRLSAYQDSVGVWTIGYGTTRGVTRYMTITVEQAERMLSNDIQRFEPELDRLAKVPLNQNQWDALMSFVYNLGAANLASSTLLDLLNKGDYQGAADQFPHWVNAGGKRLDGLVKRRAAERALFLEPLS
Molecule B1 registered an MBEC of 1 µg/mL.
